From the Human Domainome abundance scans (Beltran et al. 2025)
± gives the uncertainty stated by the source.

Assay: abundance fitness (aPCA) (normalised: wild type 0, dead -1); higher = more abundant; growth selection in yeast, the domain comes from the species named
Details: Homo sapiens

| Substance | abundance fitness |
| --- | --- |
| NEDD4-like E3 ubiquitin-protein ligase WWP2 T455P, O00308 | -0.968 ± 0.071 |
| NEDD4-like E3 ubiquitin-protein ligase WWP2 T455R, O00308 | -0.762 ± 0.038 |
| NEDD4-like E3 ubiquitin-protein ligase WWP2 T455S, O00308 | -0.115 ± 0.041 |
| NEDD4-like E3 ubiquitin-protein ligase WWP2 T455V, O00308 | -0.678 ± 0.05 |
| NEDD4-like E3 ubiquitin-protein ligase WWP2 T455W, O00308 | -0.866 ± 0.1 |
| NEDD4-like E3 ubiquitin-protein ligase WWP2 T455Y, O00308 | -0.62 ± 0.07 |
| NEDD4-like E3 ubiquitin-protein ligase WWP2 T467A, O00308 | -0.098 ± 0.12 |
| NEDD4-like E3 ubiquitin-protein ligase WWP2 T467I, O00308 | -0.421 ± 0.26 |
| NEDD4-like E3 ubiquitin-protein ligase WWP2 T467R, O00308 | -0.405 ± 0.18 |
| NEDD4-like E3 ubiquitin-protein ligase WWP2 T467S, O00308 | -0.136 ± 0.056 |
| NEDD4-like E3 ubiquitin-protein ligase WWP2 T469C, O00308 | -0.078 ± 0.057 |
| NEDD4-like E3 ubiquitin-protein ligase WWP2 T469D, O00308 | -0.257 ± 0.055 |
| NEDD4-like E3 ubiquitin-protein ligase WWP2 T469E, O00308 | -0.228 ± 0.034 |
| NEDD4-like E3 ubiquitin-protein ligase WWP2 T469F, O00308 | -0.215 ± 0.068 |
| NEDD4-like E3 ubiquitin-protein ligase WWP2 T469G, O00308 | -0.346 ± 0.054 |
| NEDD4-like E3 ubiquitin-protein ligase WWP2 T469H, O00308 | -0.26 ± 0.036 |
| NEDD4-like E3 ubiquitin-protein ligase WWP2 T469M, O00308 | -0.096 ± 0.053 |
| NEDD4-like E3 ubiquitin-protein ligase WWP2 T469N, O00308 | -0.093 ± 0.072 |
| NEDD4-like E3 ubiquitin-protein ligase WWP2 T469P, O00308 | -1.16 ± 0.13 |
| NEDD4-like E3 ubiquitin-protein ligase WWP2 T469Q, O00308 | -0.196 ± 0.06 |
| NEDD4-like E3 ubiquitin-protein ligase WWP2 T469R, O00308 | -0.243 ± 0.038 |
| NEDD4-like E3 ubiquitin-protein ligase WWP2 T469S, O00308 | -0.032 ± 0.041 |

| Substance | abundance fitness |
| --- | --- |
| NEDD4-like E3 ubiquitin-protein ligase WWP2 T469V, O00308 | -0.151 ± 0.038 |
| NEDD4-like E3 ubiquitin-protein ligase WWP2 T469W, O00308 | -0.502 ± 0.036 |
| NEDD4-like E3 ubiquitin-protein ligase WWP2 T469Y, O00308 | -0.264 ± 0.062 |
| NEDD4-like E3 ubiquitin-protein ligase WWP2 T470A, O00308 | -0.265 ± 0.035 |
| NEDD4-like E3 ubiquitin-protein ligase WWP2 T470C, O00308 | -0.164 ± 0.069 |
| NEDD4-like E3 ubiquitin-protein ligase WWP2 T470D, O00308 | -0.653 ± 0.072 |
| NEDD4-like E3 ubiquitin-protein ligase WWP2 T470E, O00308 | -0.218 ± 0.068 |
| NEDD4-like E3 ubiquitin-protein ligase WWP2 T470I, O00308 | -0.734 ± 0.15 |
| NEDD4-like E3 ubiquitin-protein ligase WWP2 T470K, O00308 | -0.356 ± 0.039 |
| NEDD4-like E3 ubiquitin-protein ligase WWP2 T470L, O00308 | -0.437 ± 0.04 |
| NEDD4-like E3 ubiquitin-protein ligase WWP2 T470M, O00308 | -0.398 ± 0.048 |
| NEDD4-like E3 ubiquitin-protein ligase WWP2 T470N, O00308 | -0.383 ± 0.11 |
| NEDD4-like E3 ubiquitin-protein ligase WWP2 T470P, O00308 | -0.906 ± 0.14 |
| NEDD4-like E3 ubiquitin-protein ligase WWP2 T470Q, O00308 | -0.42 ± 0.056 |
| NEDD4-like E3 ubiquitin-protein ligase WWP2 T470R, O00308 | -0.446 ± 0.044 |
| NEDD4-like E3 ubiquitin-protein ligase WWP2 T470S, O00308 | -0.234 ± 0.036 |
| NEDD4-like E3 ubiquitin-protein ligase WWP2 T470V, O00308 | -0.263 ± 0.046 |
| NEDD4-like E3 ubiquitin-protein ligase WWP2 T470Y, O00308 | -0.772 ± 0.12 |
| NEDD4-like E3 ubiquitin-protein ligase WWP2 T471A, O00308 | -0.725 ± 0.064 |
| NEDD4-like E3 ubiquitin-protein ligase WWP2 T471C, O00308 | -0.59 ± 0.1 |
| NEDD4-like E3 ubiquitin-protein ligase WWP2 T471D, O00308 | -0.647 ± 0.057 |
| NEDD4-like E3 ubiquitin-protein ligase WWP2 T471E, O00308 | -0.975 ± 0.11 |

| Substance | abundance fitness |
| --- | --- |
| NEDD4-like E3 ubiquitin-protein ligase WWP2 T471F, O00308 | -0.556 ± 0.09 |
| NEDD4-like E3 ubiquitin-protein ligase WWP2 T471G, O00308 | -0.673 ± 0.052 |
| NEDD4-like E3 ubiquitin-protein ligase WWP2 T471H, O00308 | -0.259 ± 0.057 |
| NEDD4-like E3 ubiquitin-protein ligase WWP2 T471I, O00308 | -0.701 ± 0.05 |
| NEDD4-like E3 ubiquitin-protein ligase WWP2 T471K, O00308 | -0.734 ± 0.065 |
| NEDD4-like E3 ubiquitin-protein ligase WWP2 T471L, O00308 | -0.887 ± 0.043 |
| NEDD4-like E3 ubiquitin-protein ligase WWP2 T471M, O00308 | -0.798 ± 0.094 |
| NEDD4-like E3 ubiquitin-protein ligase WWP2 T471N, O00308 | -0.81 ± 0.12 |
| NEDD4-like E3 ubiquitin-protein ligase WWP2 T471P, O00308 | -1.15 ± 0.13 |
| NEDD4-like E3 ubiquitin-protein ligase WWP2 T471Q, O00308 | -0.291 ± 0.073 |
| NEDD4-like E3 ubiquitin-protein ligase WWP2 T471R, O00308 | -0.62 ± 0.05 |
| NEDD4-like E3 ubiquitin-protein ligase WWP2 T471V, O00308 | -0.546 ± 0.054 |
| NEDD4-like E3 ubiquitin-protein ligase WWP2 T471W, O00308 | -0.521 ± 0.05 |
| NEDD4-like E3 ubiquitin-protein ligase WWP2 T471Y, O00308 | -0.786 ± 0.14 |
| NEDD4-like E3 ubiquitin-protein ligase WWP2 T483A, O00308 | -0.041 ± 0.034 |
| NEDD4-like E3 ubiquitin-protein ligase WWP2 T483C, O00308 | -0.005 ± 0.063 |
| NEDD4-like E3 ubiquitin-protein ligase WWP2 T483D, O00308 | -0.039 ± 0.06 |
| NEDD4-like E3 ubiquitin-protein ligase WWP2 T483E, O00308 | -0.032 ± 0.057 |
| NEDD4-like E3 ubiquitin-protein ligase WWP2 T483F, O00308 | -0.377 ± 0.072 |
| NEDD4-like E3 ubiquitin-protein ligase WWP2 T483G, O00308 | -0.01 ± 0.032 |
| NEDD4-like E3 ubiquitin-protein ligase WWP2 T483I, O00308 | -0.056 ± 0.038 |
| NEDD4-like E3 ubiquitin-protein ligase WWP2 T483K, O00308 | 0.084 ± 0.071 |

| Substance | abundance fitness |
| --- | --- |
| NEDD4-like E3 ubiquitin-protein ligase WWP2 T483L, O00308 | -0.039 ± 0.044 |
| NEDD4-like E3 ubiquitin-protein ligase WWP2 T483M, O00308 | -0.073 ± 0.055 |
| NEDD4-like E3 ubiquitin-protein ligase WWP2 T483N, O00308 | -0.247 ± 0.076 |
| NEDD4-like E3 ubiquitin-protein ligase WWP2 T483P, O00308 | -0.054 ± 0.071 |
| NEDD4-like E3 ubiquitin-protein ligase WWP2 T483Q, O00308 | -0.106 ± 0.071 |
| NEDD4-like E3 ubiquitin-protein ligase WWP2 T483R, O00308 | -0.121 ± 0.056 |
| NEDD4-like E3 ubiquitin-protein ligase WWP2 T483S, O00308 | 0.004 ± 0.042 |
| NEDD4-like E3 ubiquitin-protein ligase WWP2 T483V, O00308 | -0.03 ± 0.052 |
| NEDD4-like E3 ubiquitin-protein ligase WWP2 T483W, O00308 | -0.163 ± 0.063 |
| NEDD4-like E3 ubiquitin-protein ligase WWP2 T483Y, O00308 | -0.123 ± 0.059 |
| NEDD4-like E3 ubiquitin-protein ligase WWP2 V459A, O00308 | -0.107 ± 0.051 |
| NEDD4-like E3 ubiquitin-protein ligase WWP2 V459C, O00308 | -0.11 ± 0.065 |
| NEDD4-like E3 ubiquitin-protein ligase WWP2 V459D, O00308 | 0.05 ± 0.062 |
| NEDD4-like E3 ubiquitin-protein ligase WWP2 V459E, O00308 | 0.085 ± 0.036 |
| NEDD4-like E3 ubiquitin-protein ligase WWP2 V459F, O00308 | -0.387 ± 0.094 |
| NEDD4-like E3 ubiquitin-protein ligase WWP2 V459G, O00308 | -0.111 ± 0.051 |
| NEDD4-like E3 ubiquitin-protein ligase WWP2 V459H, O00308 | -0.103 ± 0.064 |
| NEDD4-like E3 ubiquitin-protein ligase WWP2 V459I, O00308 | -0.106 ± 0.072 |
| NEDD4-like E3 ubiquitin-protein ligase WWP2 V459K, O00308 | -0.077 ± 0.063 |
| NEDD4-like E3 ubiquitin-protein ligase WWP2 V459L, O00308 | -0.073 ± 0.04 |
| NEDD4-like E3 ubiquitin-protein ligase WWP2 V459M, O00308 | -0.07 ± 0.05 |
| NEDD4-like E3 ubiquitin-protein ligase WWP2 V459N, O00308 | -0.024 ± 0.076 |
